B1: TPR 5TU (parent)
chain: GGAUCUUCUCGAUCUAACAAAAAAGACAAAUCUGCCACAAAGCUUGAGAGCAUCUUCGGAUGCAGAGGCGGCAGCCUUCGGUGGCGCGAUAGCGCCAACGUUCUCAACUAUGACACGCAAAACGCGUGCUCCGUUGAAUGGAGUUUAUCAUG

Fewer inactive variants are shown than the library holds. Where only a bound is given, the exact number is not on record here.

In the data set the parent is B1. Nature of the data set: polymerase ribozyme fitness, log enrichment relative to wild type (log ratio); higher = more active; in vitro selection for triplet polymerase activity. The method in brief: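 Fitness is a logarithmic measure of how a genotype enriched relative to the wild type, with replicate averages weighted by inverse variance. The logarithm uses base 2, and enrichment came from Illumina sequencing of input and output libraries. Those libraries were PCR-built, transcribed mutants of each subunit of a heterodimeric triplet polymerase ribozyme, passed through one triplicate in vitro selection round that included frozen incubation at −7 °C, gel excision of extended constructs and streptavidin-bead capture. Genotypes were kept only if they had ≥10 input reads and ≥1 read per output.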
With U4C C85G C99U C125G, the “polymerase ribozyme fitness (log ratio)” value is -3.5.
The figure for U4G G88U is -3.2.
The figure for U4G A16G C54U G62C G71A U101G C105U A142G U144A is at most -4.2; for U4G U13A C57A A106C G136A it is -1.91; for A3U U4A C5U C14G A16U A30C G83U G100A it is at most -4.2.
As for A3U C76G A89U C93U G100A A137C G143U U144A, the figure is at most -4.2; as for U4G U7G A20U C57U A91U C123U A150U, -3; as for U4G A89C C131A, -3.28.
Regarding A3U C18A A22U A37G C85U, the “polymerase ribozyme fitness (log ratio)” value is -3.29.
As for A3U U56A, the figure is -1; as for A3U U56C C87U A89G U101G, -2.52.
Turning to U4G C76U G84A C95U U111G, the “polymerase ribozyme fitness (log ratio)” value was at most -4.2.
The figure for A3U U13G A20U G74C is at most -4.2.
The figure for A3U G83A C118G A142C is -3.66; for U4A C38U C57A A66G C96G C105A C123G G124A C129G it is at most -4.2; for U4G A22U A37C C95A C96A U127G it is at most -4.2.
The figure for U4G A16C A28U C38U U55A C75G U111C A122U A142C is at most -4.2; for A3U U7A A37U G67U A91C G143A it is at most -4.2.
Take U4G G58A C85U A115U U144G: the “polymerase ribozyme fitness (log ratio)” value is -2.13.
The figure for A3U C36U U56G A60C U61G C79U C93U C99U G112C U144A A150C is at most -4.2.
U4A C8U A24C C96U: the “polymerase ribozyme fitness (log ratio)” value is at most -4.2.
For A3U U53A, the “polymerase ribozyme fitness (log ratio)” value was -1.77.
The figure for U4A G34U U61G G70A C99U A107C U139G is at most -4.2; for A3U U7C U56A G58C A60C G70C G88A G94A A115U it is at most -4.2; for U4G C79A C93A it is at most -4.2.
On to U4A A29G U61A G94U G126U G133U U151G, for which the “polymerase ribozyme fitness (log ratio)” value was at most -4.2.
With U4A C51U G94C A98U, the “polymerase ribozyme fitness (log ratio)” value was -1.63.
The figure for A3U G84A is -1.14; for A3U G84U it is -2.4; for U4C A16G A21G A41C A49U U56A G86A U135A A150G it is at most -4.2.
Turning to A3U G62U G94A, the “polymerase ribozyme fitness (log ratio)” value was -1.08.
As for U4G A106G, the figure is -0.112; as for U4C C96G, 0.0289; as for U4G A39U A40U A91U C95G, at most -4.2.
The figure for A3U C96U A97G is 0.661; for A3U C57A it is -0.997; for A3U C57U it is 0.223.
For the variant U4G A21G A52G G141A, the “polymerase ribozyme fitness (log ratio)” value is -2.63.
For the variant U4C C85U U101G A147C, the “polymerase ribozyme fitness (log ratio)” value is -0.704.
In the case of U4C A22U C32G C38G G65C G81A C118U C149U, the “polymerase ribozyme fitness (log ratio)” value was at most -4.2.
As for A3U U4G U55A A119C, the figure is -1.29; as for U4C C5A C87A A91G U145A, at most -4.2; as for U4C C38U U55G C87A A106G, at most -4.2.
For A3U C38A C87U C95U G128C, the “polymerase ribozyme fitness (log ratio)” value was at most -4.2.
As to U4G A23U A26U C27G C63U U90G C93A C108U C114U C129G G140C, the “polymerase ribozyme fitness (log ratio)” value was at most -4.2.
Consider U4A U15G C87U, for which the “polymerase ribozyme fitness (log ratio)” value worked out at 0.183.
On to U4C C5A C10U U33A G88C C116U G140A, for which the “polymerase ribozyme fitness (log ratio)” value was at most -4.2.
The figure for U4C C8A A39G U55A G88U C93U U102G is at most -4.2.
Take U4G A41U A91C A97U: the “polymerase ribozyme fitness (log ratio)” value was at most -4.2.
The figure for U4C G48U A49C G68A C79G C105A is at most -4.2; for U4A A60U G86A A107G A122C it is at most -4.2; for U4A G11C A20U A28U G143U U146G it is at most -4.2.
The figure for A3U G25C C38U C85A C116A C123U is -2.27.
On to U4C C76A C93U G141C, for which the “polymerase ribozyme fitness (log ratio)” value was at most -4.2.
For U4A G50A U82G U134C, the “polymerase ribozyme fitness (log ratio)” value is -2.39.
As to A3U U31G C36U C96A, the “polymerase ribozyme fitness (log ratio)” value was -2.99.
On to U4A C35G G46A C75G G94C C105G, for which the “polymerase ribozyme fitness (log ratio)” value was at most -4.2.
As for U4G A23U U44G C51U C76G C96U U148C, the figure is at most -4.2; as for U4G A97U, 0.0622; as for U4A G59A, -1.06.
As for U4C U15G U77A G92U C99G, the figure is at most -4.2; as for U4G A19C C36A A119C G133A, at most -4.2.
Consider U4G U7G A49U C75G C93U, for which the “polymerase ribozyme fitness (log ratio)” value was at most -4.2.
As for U4A U33A G48C C57U C85U A115G C129G G141U, the figure is at most -4.2; as for U4A C57A C75G U134G, at most -4.2.
As for A3U C8A A17G U56A G59A C85A A120G, the “polymerase ribozyme fitness (log ratio)” value is at most -4.2.
As for U4C C57A C87A U146A A150C, the figure is at most -4.2; as for U4C A19G C76G G86U A89G A106C U134G, at most -4.2.
As for U4C C103A U139C, the figure is -3.94; as for U4C C95U A122U, -0.317; as for U4G G94A A115U U151G, at most -4.2.
The figure for A3U U53A G84U A138G G152A is at most -4.2; for U4A C96A A98C A115U A142U G152C it is at most -4.2; for U4C A19U G86U it is -2.06.
Turning to A3U C14G G50C C85U G88A, the “polymerase ribozyme fitness (log ratio)” value is at most -4.2.
For the variant U4A A28U C93U A97U C105G G126A G136U, the “polymerase ribozyme fitness (log ratio)” value was at most -4.2.
Turning to U4C G50A G83A C87A A91C G92A U146A, the “polymerase ribozyme fitness (log ratio)” value was at most -4.2.
As for A3U C8U, the figure is -0.611; as for A3U C8G, at most -4.2; as for A3U C8A C18U A47C A49U C93U U102G A107G G133U, at most -4.2.
As for A3U C51U C95U, the figure is -1.09; as for U4C A17C G42A G50C U53A G62A U90G A120U, at most -4.2.
U4A G48A C85A C93A A147C: the “polymerase ribozyme fitness (log ratio)” value is at most -4.2.

The record behind these values is the RNAGym collection of RNA variant scans (doi:10.1073/pnas.2313332121).
